T1: E. coli wild-type SHMT (GST fusion protein) (E. coli, UniProt P0A825 1-417)
T1 construct: Overexpressed in E. coli as a GST fusion, purified and immobilized on the ELISA plate at 2 ug/ml; not shown: Glutathione-S-transferase (GST) fusion partner
T1 sequence: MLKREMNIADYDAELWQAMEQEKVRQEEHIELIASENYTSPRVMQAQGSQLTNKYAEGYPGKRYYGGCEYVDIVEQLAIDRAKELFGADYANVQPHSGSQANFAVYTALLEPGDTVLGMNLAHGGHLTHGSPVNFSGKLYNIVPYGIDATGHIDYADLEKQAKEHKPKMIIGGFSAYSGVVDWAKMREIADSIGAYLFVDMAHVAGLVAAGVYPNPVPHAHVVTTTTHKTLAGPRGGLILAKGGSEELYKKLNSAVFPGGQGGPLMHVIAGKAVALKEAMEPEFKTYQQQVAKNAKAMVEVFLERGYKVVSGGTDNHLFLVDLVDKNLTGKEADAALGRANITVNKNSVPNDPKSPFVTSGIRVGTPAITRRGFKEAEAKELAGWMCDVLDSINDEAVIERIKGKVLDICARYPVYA

T2: E. coli SHMT (25-45) (E. coli)
T2 construct: Expressed as a GST fusion; GST was cleaved off and removed before crystallization
T2 peptide: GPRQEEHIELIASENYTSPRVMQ

T3: C. difficile iPGM (486-509) (C. difficile)
T3 construct: Expressed as a GST fusion; GST was cleaved off and removed before crystallization
T3 peptide: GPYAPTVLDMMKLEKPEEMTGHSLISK

T4: E. coli iPGM (E. coli, UniProt P37689 1-514, limits assumed)
T4 sequence (looked up): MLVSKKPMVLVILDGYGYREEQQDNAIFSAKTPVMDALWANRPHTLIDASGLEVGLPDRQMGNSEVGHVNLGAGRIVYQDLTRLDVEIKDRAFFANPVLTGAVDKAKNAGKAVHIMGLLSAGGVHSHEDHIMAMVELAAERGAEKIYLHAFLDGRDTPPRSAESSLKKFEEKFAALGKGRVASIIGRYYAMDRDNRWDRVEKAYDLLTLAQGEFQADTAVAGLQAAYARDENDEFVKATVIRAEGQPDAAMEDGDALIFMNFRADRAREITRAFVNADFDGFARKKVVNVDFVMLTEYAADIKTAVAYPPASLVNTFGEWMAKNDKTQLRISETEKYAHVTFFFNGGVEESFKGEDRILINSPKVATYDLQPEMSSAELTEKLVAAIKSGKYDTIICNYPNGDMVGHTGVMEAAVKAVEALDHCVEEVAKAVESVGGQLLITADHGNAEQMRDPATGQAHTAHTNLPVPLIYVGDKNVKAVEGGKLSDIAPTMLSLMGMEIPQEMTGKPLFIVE

B1: RS_H007_L001 (antibody, V domains shown)
VH: EVQLQQSGSELVKSGASVKLSCTVSGFNFTNYYIHWVRQRTEQGLEWIGRIDPENNQTTYAPKFQGKATMTADTSSNTAYLQLTSLTSEDTAVYYCARSTVLDYWGHGTTLTVSS
VL: DVLMTQSPASLSVSLGDRATISCRASQSIVHTNGNTYLEWYLQKPGQSPKLLIYKVSNRFSGVPDRFSGSGSGTDFILKISRVEAEDLGVYYCFQGSHVPPTFGGGTKLEVK
notes: Mainly dimers
B2: RS_H000_L001 (antibody, V domains shown)
VH: EVQLQQSGSELVKSGASVKLSCTVSGFNFTDYYIHWVRQRTEQGLEWIGRIDPENDETTYAPKFQGKATMTADTSSNTAYLQLTSLTSEDTAVYYCARSTVLDYWGHGTTLTVSS
VL: DVLMTQSPASLSVSLGDRATISCRASQSIVHTNGNTYLEWYLQKPGQSPKLLIYKVSNRFSGVPDRFSGSGSGTDFILKISRVEAEDLGVYYCFQGSHVPPTFGGGTKLEVK
notes: Mainly dimers by non-reduced SDS-PAGE
B3: RS_H000_L005 (antibody, V domains shown)
VH: EVQLQQSGSELVKSGASVKLSCTVSGFNFTDYYIHWVRQRTEQGLEWIGRIDPENDETTYAPKFQGKATMTADTSSNTAYLQLTSLTSEDTAVYYCARSTVLDYWGHGTTLTVSS
VL: DVLMTQSPASLSVSLGDRATISCRSSQSIVHTNGNTYLEWYLQKPGQSPKLLIYKVSNRFSGVPDRFSGSGSGTDFILKISRVEAEDLGVYYCFQGSHVPPTFGGGTKLEVK
notes: Mainly dimers
B4: RS_H007_L002 (antibody, V domains shown)
VH: EVQLQQSGSELVKSGASVKLSCTVSGFNFTNYYIHWVRQRTEQGLEWIGRIDPENNQTTYAPKFQGKATMTADTSSNTAYLQLTSLTSEDTAVYYCARSTVLDYWGHGTTLTVSS
VL: DVLMTQSPASLSVSLGDRVTISCRASQSIVHTNGNTYLEWYLQKPGQSPKLLIYKVSNRFSGVPDRFSGSGSGTDFILKISRVEAEDLGVYYCFQGSHVPPTFGGGTKLEVK
notes: Mainly dimers
B5: RS_H007_L004 (antibody, V domains shown)
VH: EVQLQQSGSELVKSGASVKLSCTVSGFNFTNYYIHWVRQRTEQGLEWIGRIDPENNQTTYAPKFQGKATMTADTSSNTAYLQLTSLTSEDTAVYYCARSTVLDYWGHGTTLTVSS
VL: DVLMTQSPASMSVSLGDRATISCRSSQSIVHTNGNTYLEWYLQKPGQSPKLLIYKVSNRFSGVPDRFSGSGSGTDFILKISRVEAEDLGVYYCFQGSHVPPTFGGGTKLEVK
notes: Mainly dimers
B6: RS_H007_L005 (antibody, V domains shown)
VH: EVQLQQSGSELVKSGASVKLSCTVSGFNFTNYYIHWVRQRTEQGLEWIGRIDPENNQTTYAPKFQGKATMTADTSSNTAYLQLTSLTSEDTAVYYCARSTVLDYWGHGTTLTVSS
VL: DVLMTQSPASLSVSLGDRATISCRSSQSIVHTNGNTYLEWYLQKPGQSPKLLIYKVSNRFSGVPDRFSGSGSGTDFILKISRVEAEDLGVYYCFQGSHVPPTFGGGTKLEVK
notes: Mainly dimers
B7: W27G2 antibody (antibody, V domains shown)
VH: EVQLQQSGSELVKSGASVKLSCTVSGFNFTDYYIHWVRQRTEQGLEWIGRIDPENDETTYAPKFQGKATMTADTSSNTAYLQLTSLTSEDTAVYYCARSTVLDYWGHGTTLTVSS
VL: DVLMTQTPLSLPVSLGDQASISCRASQSIVHTNGNTYLEWYLQKPGQSPKLLIYKVSNRFSGVPDRFSGSGSGTDFILKISRVEAEDLGVYYCFQGSHVPPTFGGGTKLEVKR
notes: Mouse IgA produced by a hybridoma; W27G2CHT is the crude hydroxyapatite-purified preparation; W27G2GF is the multimer fraction after gel filtration; also called hybridoma-derived W27G2 antibody; W27G2CHT
B8: RS_H000_L000GR Fab (Fab, V domains shown)
VH: EVQLQQSGSELVKSGASVKLSCTVSGFNFTDYYIHWVRQRTEQGLEWIGRIDPENDETTYAPKFQGKATMTADTSSNTAYLQLTSLTSEDTAVYYCARSTVLDYWGHGTTLTVSS
VL: DVLMTQTPLSLPVSLGDQASISCRASQSIVHTNGNTYLEWYLQKPGQSPKLLIYKVSNRFSGVPDRFSGSGSGTDFILKISRVEAEDLGVYYCFQGSHVPPTFGGGTKLEVK
notes: Fab made by papain digestion of the W27 recombinant IgG expressed in CHO cells; also called IgG W27 Fab
B9: W27 antibody (antibody, V domains shown)
VH: EVQLQQSGSELVKSGASVKLSCTVSGFNFTDYYIHWVRQRTEQGLEWIGRIDPENDETTYAPKFQGKATMTADTSSNTAYLQLTSLTSEDTAVYYCARSTVLDYWGHGTTLTVSS
VL: DVLMTQTPLSLPVSLGDQASISCRASQSIVHTNGNTYLEWYLQKPGQSPKLLIYKVSNRFSGVPDRFSGSGSGTDFILKISRVEAEDLGVYYCFQGSHVPPTFGGGTKLEVK
notes: IgA; also called W27IgA antibody

Assays:
[1] = biological target: T1, E. coli wild-type SHMT (GST fusion …); experiment: ELISA on immobilized GST fusion protein
[2] = biological target: T2, E. coli SHMT (25-45); experiment: X-ray crystal structure of the Fab-peptide complex
[3] = biological target: T3, C. difficile iPGM (486-509); experiment: X-ray crystal structure of the Fab-peptide complex
[4] = biological target: T4, E. coli iPGM; experiment: Western blot

Binder	binding result [1]	other results
B1	binds	
B2	binds	
B3	binds	
B4	binds	
B5	binds	
B6	binds	
B7	binds	
B8		binding result [2]: binds; binding result [3]: binds
B9		binding result [4]: no binding

From patent publication US20250051426A1 (IGALPHAN, published 2025)
